Data reported in article PMC5006017.

Target: syntenin-1 N-terminal wild-type peptide, biotinylated (UniProt O00560)
Assay: SPR; BIAcore 3000; biotinylated syntenin-1 N-terminal peptides immobilised on streptavidin-coupled CM5 chips, ALIX V-domain injected at 20 μl/min; 10 mM HEPES pH 7.4, 150 mM NaCl, 0.005% Surfactant P20; equilibrium analysis, one-site binding model

Kd: 29 µM
Substance: ALIX V-domain (ALIX 364-716) (from UniProt Q8WUM4 364-716) (domain or fragment)
